Ends that are not written are not given here.

This assay addresses T1, calmodulin (CaM), human, wild type (human, UniProt P0DP23 1-149).
T1 construct: human calmodulin, subcloned from HEK293 cells; Vector pGEX-6P-1; also called wt CaM; apoCaM; source: E. coli BL21 (DE3), GST fusion purified on Glutathione Sepharose 4B; GST cleaved with PreScission Protease
The experiment in a line: pull-down; GST-fusion mutated IQ (T1909A, S1918A, T1934A), treated with CaMKII and CIP, incubated with a fixed concentration of CaM (1.4 uM); [Ca2+] ≈ free; Coomassie stain. As to conditions: both partners purified.

B1: GST-fusion NaV1.1 IQ domain, potential CaMKII phosphorylation sites mutant (T1909A + S1918A + T1934A) (domain or fragment)
chain: ALKRKQEEVAAVIIQRAYRRHLLKRAVK
modifications: not fully specified (N-terminus); also: GST fusion protein
notes: IQ domain of human NaV1.1, amino acids 1909-1936, with T1909A, S1918A and T1934A; the treated samples are kept as one molecule; also called mutated NaV1.1 IQ; source: E. coli BL21 (DE3), GST fusion purified on Glutathione Sepharose 4B beads
Consider B1, for which the binding result is listed as “binds”.

The values above are taken from publication PMC6165294, “The Effect of Ca^2+, Lobe-Specificity, and CaMKII on CaM Binding to NaV1.1” (International Journal of Molecular Sciences, 2018).
